{"source": "paper PMC3391290", "key": {"[1]": {"molecular_target": "TSHR-LHR-6 chimeric receptor", "assay": "radioligand binding; membrane preparations of TSHR wild type, mutants and constructs, 125I-hTSH with increasing unlabelled hTSH; with NMIgG (control) (Table 5)"}, "[2]": {"molecular_target": "TSHR-LHR-6 chimeric receptor", "assay": "radioligand binding; membrane preparations of TSHR wild type, mutants and constructs, 125I-hTSH with increasing unlabelled hTSH; with MAb 311.87 (134 nM) (Table 5)"}}}
{"substance": "human thyroid stimulating hormone (hTSH) (from UniProt P01215 25-116; P01222 21-132) (ligand)", "values": [{"measurement": "Kd", "setting": "[1]", "value": 0.27, "unit": "nM"}, {"measurement": "Kd with MAb 311.87", "setting": "[2]", "value": 0.39, "unit": "nM"}]}
